Numbering of substitutions follows the chain as printed. Where “and” joins values, the source holds several entries; their conditions need not be identical. Equal entries are not always repeated.
What was measured:
[1] = Constant-force (CF) single-molecule optical tweezers folding assay of guanine-aptamer RNAs in guanine buffer; assay type: physicochemical; details: for F^eq / k^eq: [G] = 200 nM; for Observed nucleotides / Observed ΔXobs: CF; for k^eq: at F^eq
Description: The aptamer folding was monitored in real time using a constant-force (CF) assay. Equilibrium sampling techniques provide unprecedented insights into the rare events in the course of folding that are otherwise difficult to identify. The technique also allows for determination of the kinetic rates that has not been fully investigated in the guanine riboswitch. The relative dynamics of the helices have been investigated in ensemble and smFRET experiments, which indicated a non-dynamic P1-P3, upon which the P2 helix switches conformations. As shown in FIG. 6A (left panel), the RNA oscillated between the linear and the hairpin conformations (E↔D↔C) at 13 pN. The distances ΔXED=7.1±0.4 nm and ΔXDC=7.9±0.4 nm correspond to the folding of a 17±1 nt (P2) and 19±1 nt (P3) respectively (FIGS. 7A-B). The conversion of distances to nucleotides in CF assay are described in Table 2.
A miniaturized dual beam optical tweezers instrument was constructed with a sampling rate of 0.4, 4 and 40 kHz. Typically, in the tweezers set up (FIGS. 2A-E), a single-molecule of RNA is held between two beads via ˜550 nucleotide (nt) long Handles A and B. Preparation of Handles and the RNA is described in the section above. The streptavidin coated polystyrene bead (diameter 1.5-1.9 μm, Spherotech Inc.) is fixed on a micropipette via suction, and the anti-digoxigenin coated bead (diameter 4.0-4.9 μm, Spherotech Inc.) is held in the dual counter-propagating laser beam. The trap stiffness, K is measured at 0.04-0.06 pN/nm from the power spectrum analysis of the Brownian motion of the trapped bead. For power spectrum analysis, a polystyrene bead with diameter ˜4.6 μm is trapped in the counter-propagating laser beam in aqueous buffer with a fixed trap position. […] The average from 10 beads yielded K˜0.049±0.0008 pN/nm, and the stoke's drag coefficient, y=0.0364±0.0002 pN. s/μm. […] However, the autocorrelation time (τ0) defined as the τ1=1/2πfc as described by Zoldak et al., “Ultrafast folding kinetics and cooperativity of villin headpiece in single-molecule force spectroscopy”. Proc. Natl. Acad. Sci. U.S.A 110, 18156 (2013) sets the detection limit for the observable kinetics, which is different from the sampling frequencies. […] The ACF for the time series of force signal, Fi, with sampling rate δ and N data points, is calculated as,
In a constant-force (CF) experiment, the RNA is held at a preset force through feedback control. The preset force typically fluctuated around the mean with a standard deviation ±0.15 pN. In this mode, data is recorded from 4-40 kHz to capture the fast intermediates. The plots are shown as extension vs. time (as in FIG. 6A). In force-jump (FJ) assay, the force is suddenly jumped from one force to another, and then held constant thereafter, as shown in FIGS. 23A-B.
All FR, CF and FJ experiments were carried out at an ambient temperature, 25±0.5° C. The buffer in the microfluidics contained 10 mM Tris-HCl, pH 7.5 at 25° C., 250 mM NaCl, 3 mM MgCl2, and purine concentrations as indicated in wild-type aptamer. Unless stated otherwise, Mg^2+ concentration in the buffer was maintained at 3 mM in all experiments. The buffer in mutant m1 contained 5 mm Mg^2+ and 1 μM G, and in m3 contained 5 mM Mg^2+ and 200 nM Guanine. For the remaining m2, m4, m5 and m6 mutants, the buffer in single-molecule experiments was supplemented only with 3 mM Mg^2+ and 200 nM Guanine.
In the force-ramp experiment, the trap was moved away (pull cycle) from the micropipette at 200 nm/sec, which corresponded to a loading rate of 7-8 pN/sec. This movement of the trap exerted a tension at the ends of the tethered RNA aptamer. […] In the constant-force (CF) experiment, the RNA was held at a preset force (FIG. 6A). The loading rate in CF experiments was zero. The preset force typically fluctuated around the mean with standard deviation ±0.15 pN. […]

[2] = Isothermal titration calorimetry (ITC); assay type: binding
Method: For ITC experiments, wild-type G-aptamer and the mutant RNAs were synthesized by in vitro transcription of the DNA template and purified by denaturing polyacrylamide gel electrophoresis (PAGE). The ligand guanine was introduced in the syringe, while the RNA into the sample cell at a final concentration of 10 μM and 1 μM respectively. The concentrations were determined by absorbance reading using ε260=12010 M^−1 cm^−1 (guanine) and ε260=711400 M^−1 cm^−1 (RNA). The buffer in the syringe and the sample cell contained 50 mM K^+ Hepes (pH 7.5), 100 mM KCl, and 10 mM MgCl2. Binding reactions were performed at 30° C. on a MicroCal iTC200 instrument (Malvern) with a reference power of 6 μcal/sec, an initial delay of 60 secs and a stirring speed of 750 rpm. Guanine was titrated into the sample cell in 16 injections (2.5 μl each). The injection rate was 0.5 μl/sec and the spacing between the injections was maintained at 120 sec. Data was baseline corrected and fitted to a single-site binding model to obtain association constant (KA), stoichiometry (n) and binding enthalpy, ΔH. The dissociation constant (KD) and the binding free energy, ΔG was obtained from the fitted parameters using the following relations. All data analysis was performed using the Origin ITC software.
The ITC results are reported as mean±standard deviation from three independent experiments.

[3] = transition BA (P1 folding), F 8.5 pN, 3 mM Mg^2+, 200 nM G
[4] = transition CB (J2/3 folding), F 13 pN, 3 mM Mg^2+, 200 nM G
[5] = transition C′B (L2-L3 folding), F 8.5 pN, 3 mM Mg^2+, 200 nM G
[6] = transition DC (P3 folding), F 13 pN, 3 mM Mg^2+, 200 nM G
[7] = transition ED (P2 folding), F 13 pN, 3 mM Mg^2+, 200 nM G
[8] = transition C′A (merged C′B and BA), F 6.1 pN, 5 mM Mg^2+, 1 uM G
[9] = transition DC (P3 folding), F 12.0 pN, 5 mM Mg^2+, 1 uM G
[10] = transition ED (P2 folding), F 13.5 pN, 5 mM Mg^2+, 1 uM G

B1: wt: 69-nucleotide full-length wild-type guanine sensing aptamer RNA sequence from xpt-pbuX operon in B. subtilis (SEQ ID NO: 1) (nucleic acid)
chain: CACUCAUAUAAUCGCGUGGAUAUGGCACGCAAGUUUCUACCGGGCACCGUAAAUGUCCGACUAUGGGUG
modifications: RNA, backbone and methylation of C not given here
F^eq ([1]; Closed J2/3 (CB)): ~13 pN
Time to form the native receptor structure after guanine binding ([1]; FIG. 22): ~8 μsec
Observed nucleotides ([1]; J2/3 (CB), 13 pN): 8.4 ± 0.2
Observed ΔXobs ([1]; J2/3 (CB), 13 pN): 3.5 ± 0.1 (CF) nm
Observed ΔXobs ([1]; L2-L3 (C′B), 8.5 pN): 3.4 ± 0.1 (CF) nm
F^eq ([1]; L2-L3 (C′B)): 8.72 ± 0.11 pN
k^eq ([1]; L2-L3 (C′B)): 0.82 ± 0.06 s⁻¹
F^eq ([1]; P1 (BA)): 8.21 ± 0.11 pN
k^eq ([1]; P1 (BA)): 0.55 ± 0.09 s⁻¹
Observed nucleotides ([1]; P1+ junctions (BA), 8.5 pN): 21.7 ± 0.5
Observed ΔXobs ([1]; P1+ junctions (BA), 8.5 pN, 2 nm helix width subtracted): 8.0 ± 0.2 (CF) nm
F^eq ([1]; P2 (ED)): 13.49 ± 0.03 pN
k^eq ([1]; P2 (ED)): 13.20 ± 0.20 s⁻¹
Observed nucleotides ([1]; P2 hairpin (ED), 13 pN): 17±1
Observed ΔXobs ([1]; P2 hairpin (ED), 13 pN): 7.1 ± 0.4 (CF) nm
F^eq ([1]; P3 (DC)): 12.19 ± 0.02 pN
k^eq ([1]; P3 (DC)): 16.80 ± 0.30 s⁻¹
Observed nucleotides ([1]; P3 hairpin (DC), 13 pN): 19±1 and 18.9 ± 1
Observed ΔXobs ([1]; P3 hairpin (DC), 13 pN): 7.9 ± 0.4 (CF) nm
Barrier ΔGP1^‡ before folding of the P1-stem ([1]; free energy landscape transformed to zero force): ~6 kBT
F^eq for P2-P3 ([1]; guanine-aptamer): ~13 pN
Rates for the two hairpins P2 and P3 ([1]; range over Table 1): 8.5 to 32.3 s⁻¹
Equilibrium force F^eq ([1]; transition BA (P1 folding), 3 mM Mg^2+, 200 nM G (rates at 8.5 pN)): 8.2 ± 0.1 pN
Folding rate kf [1, 3]: 0.4 ± 0.03 s⁻¹
Unfolding rate ku [1, 3]: 0.7 ± 0.09 s⁻¹
Transition distance ΔX ([1]; transition BA (P1 folding), F 8.5 pN, 3 mM Mg^2+, 200 nM G, no helix width adjustment): 9.9 ± 0.2 nm
ΔG (0) ([1]; transition BA (P1 folding), zero force, from data at 8.5 pN, 3 mM Mg^2+, 200 nM G): −13.9 ± 0.4 kBT
ΔG (0) ([1]; transition BA (P1 folding), zero force, from data at 8.5 pN, 3 mM Mg^2+, 200 nM G, listed as wild-type): −13.9 kBT
Transition distance ΔX [1, 4]: 3.5 ± 0.1 nm
Unfolding rate ku [1, 4]: 2.6 ± 0.5 s⁻¹
ΔG (0) ([1]; transition CB (J2/3 folding), zero force, ΔG(0) = −F·ΔX + ΔGstretch, 3 mM Mg^2+, 200 nM G): −7.2 ± 0.3 kBT
Equilibrium force F^eq ([1]; transition C′B (L2-L3 folding), 3 mM Mg^2+, 200 nM G (rates at 8.5 pN)): 8.7 ± 0.1 pN
Folding rate kf [1, 5]: 0.9 ± 0.06 s⁻¹
Transition distance ΔX [1, 5]: 3.4 ± 0.1 nm
Unfolding rate ku [1, 5]: 0.8 ± 0.05 s⁻¹
ΔG (0) ([1]; transition C′B (L2-L3 folding), zero force, from data at 8.5 pN, 3 mM Mg^2+, 200 nM G): −7.1 ± 0.2 kBT
Equilibrium force F^eq ([1]; transition DC (P3 folding), 3 mM Mg^2+, 200 nM G (rates at 13 pN)): 12.2 ± 0.02 pN
Equilibrium force F^eq ([1]; transition DC (P3 folding), 3 mM Mg^2+, 200 nM G (rates at 13 pN), listed as wild-type): 12.2±0.02 pN
Folding rate kf [1, 6]: 8.5 ± 0.1 s⁻¹
Transition distance ΔX [1, 6]: 7.9±0.4 nm
Unfolding rate ku [1, 6]: 32.3 ± 0.5 s⁻¹
ΔG (0) ([1]; transition DC (P3 folding), zero force, from data at 13 pN, 3 mM Mg^2+, 200 nM G): −16.3 ± 0.3 kBT
ΔG (0) ([1]; transition DC (P3 folding), zero force, from data at 13 pN, 3 mM Mg^2+, 200 nM G, listed as wild-type): −16.3 kBT
Equilibrium force F^eq ([1]; transition ED (P2 folding), 3 mM Mg^2+, 200 nM G (rates at 13 pN)): 13.5 ± 0.03 pN
Equilibrium force F^eq ([1]; transition ED (P2 folding), 3 mM Mg^2+, 200 nM G (rates at 13 pN), listed as wild-type): 13.5±0.03 pN
Folding rate kf [1, 7]: 20.0 ± 0.4 s⁻¹
Transition distance ΔX [1, 7]: 7.1±0.4 nm
Unfolding rate ku [1, 7]: 8.9 ± 0.1 s⁻¹
ΔG (0) ([1]; transition ED (P2 folding), zero force, from data at 13 pN, 3 mM Mg^2+, 200 nM G): −16.7 ± 0.3 kBT
Net free energy change ΔΔGaptamer ([1]; zero force, guanine-bound receptor structure): −81 kT
ΔG of guanine binding ([2]; 30° C.): -11.63 ± 0.20 kcal/mol
ΔH of guanine binding ([2]; 30° C.): -63.7 ± 1.1 kcal/mol
Kd ([2]; 30° C., 50 mM K^+ Hepes pH 7.5, 100 mM KCl, 10 mM MgCl2, read-out: KD for guanine): 4.22 ± 0.6 nM

B2: m1: m1 mutant guanine sensing aptamer RNA (SEQ ID NO: 2); G37 replaced with adenine in the L2 loop (nucleic acid)
chain: B1 chain with G24A
modifications: RNA, backbone and methylation of C not given here
notes: G37 replaced with adenine in the L2 loop
Equilibrium force F^eq ([1]; transition C′A (merged C′B and BA), 5 mM Mg^2+, 1 uM G (rates at 6.1 pN)): 6 pN and 6.0 ± 0.03 pN
Folding rate kf [1, 8]: 0.6 ± 0.05 s⁻¹
Transition distance ΔX [1, 8]: 12.4 ± 0.3 nm
Unfolding rate ku [1, 8]: 0.6 ± 0.05 s⁻¹
ΔG (0) ([1]; transition C′A (merged C′B and BA), zero force, from data at 6.1 pN, 5 mM Mg^2+, 1 uM G): −12.4 ± 0.5 kBT
Equilibrium force F^eq ([1]; transition DC (P3 folding), 5 mM Mg^2+, 1 uM G (rates at 12.0 pN)): 12.2 ± 0.01 pN
Folding rate kf [1, 9]: 20.7 ± 0.4 s⁻¹
Transition distance ΔX [1, 9]: 7.7 ± 0.3 nm
Unfolding rate ku [1, 9]: 15.2 ± 0.3 s⁻¹
ΔG (0) ([1]; transition DC (P3 folding), zero force, from data at 12.0 pN, 5 mM Mg^2+, 1 uM G): −15.9 ± 0.9 kBT
Equilibrium force F^eq ([1]; transition ED (P2 folding), 5 mM Mg^2+, 1 uM G (rates at 13.5 pN)): 13.4 ± 0.01 pN
Folding rate kf [1, 10]: 11.8 ± 0.3 s⁻¹
Transition distance ΔX [1, 10]: 7.2 ± 0.2 nm
Unfolding rate ku [1, 10]: 15.1 ± 0.3 s⁻¹
ΔG (0) ([1]; transition ED (P2 folding), zero force, from data at 13.5 pN, 5 mM Mg^2+, 1 uM G): −16.6 ± 0.7 kBT
KD off relative to wild-type [2]: 35 fold
ΔG of guanine binding ([2]; 30° C.): -9.52 ± 0.22 kcal/mol

Source: US11905559B2, “Materials and methods for controlling gene expression” (priority 2016, dated 2024)
